# ± gives the uncertainty stated by the source.
# Assay: abundance fitness (aPCA) (normalised: wild type 0, dead -1); higher = more abundant; growth selection in yeast, the domain comes from the species named
# Conditions: Homo sapiens
row,Substance,abundance fitness
1,"DnaJ homolog subfamily B member 1 A12C, P25685",-0.213 ± 0.14
2,"DnaJ homolog subfamily B member 1 A12D, P25685",-0.38 ± 0.11
3,"DnaJ homolog subfamily B member 1 A12E, P25685",-0.277 ± 0.13
4,"DnaJ homolog subfamily B member 1 A12F, P25685",-0.346 ± 0.092
5,"DnaJ homolog subfamily B member 1 A12G, P25685",-0.421 ± 0.1
6,"DnaJ homolog subfamily B member 1 A12H, P25685",-0.175 ± 0.15
7,"DnaJ homolog subfamily B member 1 A12I, P25685",-0.163 ± 0.11
8,"DnaJ homolog subfamily B member 1 A12K, P25685",-0.02 ± 0.077
9,"DnaJ homolog subfamily B member 1 A12L, P25685",-0.179 ± 0.068
10,"DnaJ homolog subfamily B member 1 A12M, P25685",-0.139 ± 0.067
11,"DnaJ homolog subfamily B member 1 A12N, P25685",-0.147 ± 0.089
12,"DnaJ homolog subfamily B member 1 A12P, P25685",-0.108 ± 0.12
13,"DnaJ homolog subfamily B member 1 A12Q, P25685",-0.094 ± 0.094
14,"DnaJ homolog subfamily B member 1 A12R, P25685",-0.147 ± 0.07
15,"DnaJ homolog subfamily B member 1 A12S, P25685",-0.191 ± 0.078
16,"DnaJ homolog subfamily B member 1 A12T, P25685",-0.28 ± 0.088
17,"DnaJ homolog subfamily B member 1 A12V, P25685",-0.145 ± 0.08
18,"DnaJ homolog subfamily B member 1 A12Y, P25685",-0.559 ± 0.46
19,"DnaJ homolog subfamily B member 1 A15C, P25685",-0.056 ± 0.14
20,"DnaJ homolog subfamily B member 1 A15D, P25685",-0.502 ± 0.092
21,"DnaJ homolog subfamily B member 1 A15E, P25685",-0.481 ± 0.068
22,"DnaJ homolog subfamily B member 1 A15F, P25685",-0.814 ± 0.13
23,"DnaJ homolog subfamily B member 1 A15H, P25685",-0.866 ± 0.15
24,"DnaJ homolog subfamily B member 1 A15I, P25685",-0.69 ± 0.14
25,"DnaJ homolog subfamily B member 1 A15K, P25685",-0.818 ± 0.096
26,"DnaJ homolog subfamily B member 1 A15L, P25685",-0.801 ± 0.071

row,Substance,abundance fitness
1,"DnaJ homolog subfamily B member 1 A15M, P25685",-0.627 ± 0.1
2,"DnaJ homolog subfamily B member 1 A15N, P25685",-0.668 ± 0.14
3,"DnaJ homolog subfamily B member 1 A15P, P25685",-0.702 ± 0.098
4,"DnaJ homolog subfamily B member 1 A15Q, P25685",-0.648 ± 0.12
5,"DnaJ homolog subfamily B member 1 A15R, P25685",-0.82 ± 0.055
6,"DnaJ homolog subfamily B member 1 A15S, P25685",-0.109 ± 0.074
7,"DnaJ homolog subfamily B member 1 A15T, P25685",-0.271 ± 0.078
8,"DnaJ homolog subfamily B member 1 A15W, P25685",-1.17 ± 0.085
9,"DnaJ homolog subfamily B member 1 A15Y, P25685",-1 ± 0.16
10,"DnaJ homolog subfamily B member 1 A23C, P25685",-0.169 ± 0.11
11,"DnaJ homolog subfamily B member 1 A23D, P25685",-0.852 ± 0.22
12,"DnaJ homolog subfamily B member 1 A23E, P25685",-0.149 ± 0.086
13,"DnaJ homolog subfamily B member 1 A23F, P25685",-0.816 ± 0.1
14,"DnaJ homolog subfamily B member 1 A23G, P25685",-0.184 ± 0.08
15,"DnaJ homolog subfamily B member 1 A23H, P25685",-0.312 ± 0.14
16,"DnaJ homolog subfamily B member 1 A23I, P25685",-0.819 ± 0.11
17,"DnaJ homolog subfamily B member 1 A23K, P25685",-0.612 ± 0.11
18,"DnaJ homolog subfamily B member 1 A23L, P25685",-0.839 ± 0.053
19,"DnaJ homolog subfamily B member 1 A23M, P25685",-0.328 ± 0.068
20,"DnaJ homolog subfamily B member 1 A23N, P25685",-0.169 ± 0.12
21,"DnaJ homolog subfamily B member 1 A23P, P25685",-0.917 ± 0.095
22,"DnaJ homolog subfamily B member 1 A23Q, P25685",-0.241 ± 0.13
23,"DnaJ homolog subfamily B member 1 A23R, P25685",-0.442 ± 0.066
24,"DnaJ homolog subfamily B member 1 A23S, P25685",-0.159 ± 0.056
25,"DnaJ homolog subfamily B member 1 A23T, P25685",-0.339 ± 0.11
26,"DnaJ homolog subfamily B member 1 A23W, P25685",-0.984 ± 0.09

row,Substance,abundance fitness
1,"DnaJ homolog subfamily B member 1 A23Y, P25685",-0.665 ± 0.097
2,"DnaJ homolog subfamily B member 1 A28D, P25685",-0.521 ± 0.21
3,"DnaJ homolog subfamily B member 1 A28E, P25685",-0.116 ± 0.12
4,"DnaJ homolog subfamily B member 1 A28F, P25685",0.079 ± 0.14
5,"DnaJ homolog subfamily B member 1 A28G, P25685",-0.106 ± 0.086
6,"DnaJ homolog subfamily B member 1 A28I, P25685",0.093 ± 0.095
7,"DnaJ homolog subfamily B member 1 A28K, P25685",-0.149 ± 0.083
8,"DnaJ homolog subfamily B member 1 A28L, P25685",-0.032 ± 0.065
9,"DnaJ homolog subfamily B member 1 A28M, P25685",-0.06 ± 0.088
10,"DnaJ homolog subfamily B member 1 A28N, P25685",-0.119 ± 0.12
11,"DnaJ homolog subfamily B member 1 A28P, P25685",-0.953 ± 0.16
12,"DnaJ homolog subfamily B member 1 A28Q, P25685",0.084 ± 0.16
13,"DnaJ homolog subfamily B member 1 A28R, P25685",0.033 ± 0.09
14,"DnaJ homolog subfamily B member 1 A28S, P25685",-0.172 ± 0.11
15,"DnaJ homolog subfamily B member 1 A28T, P25685",-0.094 ± 0.1
16,"DnaJ homolog subfamily B member 1 A28V, P25685",0.043 ± 0.081
17,"DnaJ homolog subfamily B member 1 A28W, P25685",0.024 ± 0.11
18,"DnaJ homolog subfamily B member 1 A28Y, P25685",0.007 ± 0.14
19,"DnaJ homolog subfamily B member 1 A41D, P25685",-0.036 ± 0.13
20,"DnaJ homolog subfamily B member 1 A41E, P25685",-0.009 ± 0.11
21,"DnaJ homolog subfamily B member 1 A41F, P25685",-0.128 ± 0.25
22,"DnaJ homolog subfamily B member 1 A41G, P25685",-0.104 ± 0.067
23,"DnaJ homolog subfamily B member 1 A41H, P25685",-0.24 ± 0.096
24,"DnaJ homolog subfamily B member 1 A41I, P25685",-0.132 ± 0.17
25,"DnaJ homolog subfamily B member 1 A41K, P25685",-0.178 ± 0.092
26,"DnaJ homolog subfamily B member 1 A41L, P25685",-0.168 ± 0.066

row,Substance,abundance fitness
1,"DnaJ homolog subfamily B member 1 A41M, P25685",-0.214 ± 0.089
2,"DnaJ homolog subfamily B member 1 A41N, P25685",-0.164 ± 0.17
3,"DnaJ homolog subfamily B member 1 A41P, P25685",-0.432 ± 0.11
4,"DnaJ homolog subfamily B member 1 A41Q, P25685",-0.134 ± 0.077
5,"DnaJ homolog subfamily B member 1 A41R, P25685",-0.181 ± 0.07
6,"DnaJ homolog subfamily B member 1 A41S, P25685",-0.146 ± 0.072
7,"DnaJ homolog subfamily B member 1 A41T, P25685",-0.055 ± 0.068
8,"DnaJ homolog subfamily B member 1 A41V, P25685",-0.02 ± 0.075
9,"DnaJ homolog subfamily B member 1 A41W, P25685",-0.255 ± 0.064
10,"DnaJ homolog subfamily B member 1 A41Y, P25685",-0.631 ± 0.43
11,"DnaJ homolog subfamily B member 1 A49C, P25685",0.049 ± 0.12
12,"DnaJ homolog subfamily B member 1 A49D, P25685",-0.086 ± 0.12
13,"DnaJ homolog subfamily B member 1 A49E, P25685",0.126 ± 0.094
14,"DnaJ homolog subfamily B member 1 A49F, P25685",-0.358 ± 0.15
15,"DnaJ homolog subfamily B member 1 A49G, P25685",-0.187 ± 0.12
16,"DnaJ homolog subfamily B member 1 A49H, P25685",-0.132 ± 0.18
17,"DnaJ homolog subfamily B member 1 A49I, P25685",-0.304 ± 0.16
18,"DnaJ homolog subfamily B member 1 A49K, P25685",0.13 ± 0.13
19,"DnaJ homolog subfamily B member 1 A49L, P25685",-0.75 ± 0.086
20,"DnaJ homolog subfamily B member 1 A49N, P25685",0.115 ± 0.17
21,"DnaJ homolog subfamily B member 1 A49P, P25685",-0.743 ± 0.074
22,"DnaJ homolog subfamily B member 1 A49Q, P25685",-0.394 ± 0.086
23,"DnaJ homolog subfamily B member 1 A49R, P25685",0.021 ± 0.082
24,"DnaJ homolog subfamily B member 1 A49S, P25685",-0.037 ± 0.074
25,"DnaJ homolog subfamily B member 1 A49T, P25685",0.094 ± 0.099

# — the Human Domainome abundance scans (Beltran et al. 2025)
